Source: US20260209285A1, “SWEET-TASTING PROTEIN BRAZZEIN MUTANT HAVING HIGH SWEETNESS AND PREPARATION METHOD THEREFOR” (NANJING BESTZYME BIO-ENGINEERING CO., LTD., priority 2022, published 2026)
Substitutions are numbered along the chain they refer to. Read-outs that look alike come from different tables or passages of the source.

B1: ROLpro-BXT-D1: BXT-D1 expressed fused to leader peptide ROLpro, SEQ ID NO: 21; leader removed by cleavage (protein)
chain: DDNLVGGMTLDLPSDAPPISLSSSTNSAVALEKRDKCKKVYENYPVSKCQLANQCNYDCKLDKHARSGDCFYDAKRNLQCICDYCEY
modifications: ROLpro leader removed by cleavage
B2: ROLpro-BXT-D4: BXT-D4 expressed fused to leader peptide ROLpro, SEQ ID NO: 27; leader removed by cleavage (protein)
chain: B1 chain with A74R
modifications: ROLpro leader removed by cleavage
B3: ROLpro-BXT-D5: BXT-D5 expressed fused to leader peptide ROLpro, SEQ ID NO: 29; leader removed by cleavage (protein)
chain: B1 chain with H64R
modifications: ROLpro leader removed by cleavage
B4: ROLpro-BXT: Brazzein BXT expressed fused to Rhizopus oryzae lipase leader peptide ROLpro with kex2 site, SEQ ID NO: 19; leader removed by cleavage (protein)
chain: B1 chain with D69E, A74E
modifications: ROLpro leader removed by kex2 cleavage
B5: ROLpro-BXT-D2: BXT-D2 expressed fused to leader peptide ROLpro, SEQ ID NO: 23; leader removed by cleavage (protein)
chain: B1 chain with A74D
modifications: ROLpro leader removed by cleavage
B6: ROLpro-BXT-D6: BXT-D6 expressed fused to leader peptide ROLpro, SEQ ID NO: 31; leader removed by cleavage (protein)
chain: B1 chain with H64R, A74K
modifications: ROLpro leader removed by cleavage
B7: ROLpro-BXT-D7: BXT-D7 expressed fused to leader peptide ROLpro, SEQ ID NO: 33; leader removed by cleavage (protein)
chain: B1 chain with H64R, A74R
modifications: ROLpro leader removed by cleavage
B8: ROLpro-BXT-D3: BXT-D3 expressed fused to leader peptide ROLpro, SEQ ID NO: 25; leader removed by cleavage (protein)
chain: B1 chain with A74K
modifications: ROLpro leader removed by cleavage

Legend:
healthy evaluators [1] = settings: 1% sucrose solution used as minimum concentration at which sweetness is felt; cited from earlier work
[2] = cited from earlier work; for sweetness relative to sucrose of the same weight: calculated by weight, prior art; for sweetness delay: prior art CN 102498126 A
healthy evaluators [3] = experiment: Determination of sweetness threshold by human sensory evaluation; format: in vivo; settings: for Sweetness fold relative to 1% sucrose: =10000/(sample sweetness threshold); for Concentration (μg/mL) corresponding to threshold: sweetness threshold, protein diluted with mineral water (pH 6.9), averaged for 10 individuals
Protocol: Since the recombinant Brazzein of the present disclosure is not a sugar-based compound, it is impossible to measure the sweetness by using a saccharometer. Therefore, the sweetness threshold is measured using human sensory evaluation. For most people, the sweetness threshold for sugar in soft drinks is 0.32%-1.0%. To assess the sweetness threshold for each solution, an 1% sucrose solution is used as the solution with minimum concentration at which sweetness is felt, i.e., the sweetness threshold is 10000 μg/mL The sweetness potency of the Brazzein described herein relative to sucrose is generally in a range of 1:500 to 1:16,000. The samples tested included naturally extracted Brazzein (homemade, about 95% pure), recombinant Brazzein and mutants thereof, sucrose and mineral water. The protein was diluted in a gradient from 0.5 to 20 μg/ml by diluting the dry protein powder with mineral water (pH 6.9). Ten healthy evaluators (five males and five females) aged between 30 and 50 participated in the assessment, five of whom were trained wine tasters. Tasting started at the lowest concentration, with concentration increased by 1 μg/ml each time until sweetness was felt; then based on this concentration, the concentration was reduced by 0.1 μg/ml at a time until sweetness was not felt; and the sweetness threshold of the sample was determined by gradually decreasing the concentration gradient in such a way. 20 ml of samples were tested randomly compared to sugar solutions. Before each analysis, the evaluator was asked to rinse his/her mouth with water and eat the neutral crackers until there was no residual taste. The test solution was held in oral cavity for at least 10 seconds. Thereafter, evaluators provided scores against samples on the basis of their responses between 0 and 10; 0—no sweet feeling, 10—highly sweet. The final results for each protein were averaged for 10 individuals. The sweetness factor of Brazzein and mutants thereof relative to 1% sucrose=10000/(sample sweetness threshold).

[4] = aqueous solution, 80° C. for 4 hours; cited from earlier work

Molecule | Sweetness fold relative to 1% sucrose (healthy evaluators [3]) [fold] | Concentration (μg/mL) corresponding to threshold (healthy evaluators [3]) [µg/mL] | other results
OC[C@H]1O[C@@](CO)(O[C@H]2O[C@H](CO)[C@@H](O)[C@H](O)[C@H]2O)[C@@H](O)[C@@H]1O [sucrose] | – | – | sweetness threshold of sucrose (reference) (healthy evaluators [1]): 10000 µg/mL
Brazzein | – | – | sweetness relative to sucrose of the same weight ([2]; listed as Brazzein expressed in an Aspergillus oryzae host in patent CN102498126A): 510 times; sweetness relative to sucrose of the same weight ([2]; listed as expressed Brazzein): about 510 times; sweetness delay [2]: about 1.5 seconds; sweetness delay ([2]; listed as expressed Brazzein): obvious sweetness delay
Brazzein (QDKCKKVYENYPVSKCQLANQCNYDCKLDKHARSGECFYDEKRNLQCICDYCEY; UniProt P56552 1-54, looked up) [Naturally extracted Brazzein, naturally extracted Brazzein (homemade, about 95% pure), reference compound] | 501 | 20 ± 3.9 | –
Brazzein [Brazzein expressed by Pichia pastoris] | – | – | sweetness relative to sucrose of the same weight [2]: 40 times
Brazzein [Brazzein] (DKCKKVYENYPVSKCQLANQCNYDCKLDKHARSGECFYDEKRNLQCICDYCEY; listed as Pentadiplandra brazzeana) [sweet protein extracted from fruits of Pentadiplandra brazzeana (Baillon), 54 amino acids, 6.5 kDa] | – | – | sweetness after heat treatment [4]: remains sweet
B1 | 6666.7 | 1.5 ± 0.3 | –
B2 | 8333.3 | 1.2 ± 0.2 | –
B3 | 8333.3 | 1.2 ± 0.2 | –
B4 | 613.5 | 16.3 ± 2.9 | –
B5 | 3703.7 | 2.7 ± 0.5 | –
B6 | 16666.7 | 0.6 ± 0.1 | –
B7 | 16666.7 | 0.6 ± 0.1 | –
B8 | 6250 | 1.6 ± 0.3 | –
